Experimental data reported in US7115410 (ELAN PHARMACEUTICALS, dated 2006).
Square brackets hold non-standard residues; d marks the D form. Sta = CC(C)C[C@H](N)[C@@H](O)CC(=O)O

Experiments:
[1] = molecular target: T1, recombinant β-secretase from 293T cells, minor form starting at Thr-22 (human, UniProt P56817 22-501); experiment: N-terminal sequencing of fractions from P10-P4′staD→V Sepharose, 293T cells
T1 construct: C-terminus not determined
Description: (§1) The cell pellet was resuspended by homogenizing for 30 seconds using a handheld homogenizer (0.5 ml/pellet of approximately 10^6 cells in extraction buffer consisting of 20 mM TRIS buffer, pH 7.5, 2 mM EDTA, 0.2% Triton X-100, plus protease inhibitors: 5 μg/ml E-64, 10 μg/ml pepstatin, 1 mM PMSF), centrifuged as maximum speed in a microfuge (40 minutes at 4 degrees C.). Pellets were suspended in original volume of extraction buffer, then stirred at 1 hour at 4 degrees C. with rotation, and centrifuted again in a microfuge at maximum speed for 40 minutes. The resulting supernatant was saved as the "extract." The extract was then diluted with 20 mm sodium acetate, pH 5.0, 2 mM EDTA and 0.2% Triton X-100 (SP buffer A), and 5 M NaCl was added to a final concentration of 60 mM NaCl. The pH of the solution was then adjusted to pH 5.0 with glacial acetic acid diluted 1:10 in water. Aliquots were saved ("SP load"). The SP load was passed through a 1 ml SP HiTrap column which was pre-washed with 5 ml SP buffer A, 5 ml SP buffer B (SP buffer A with 1 M NaCl) and 10 ml SP buffer A. An additional 2 ml of 5% SP buffer B was passed through the column to dissplace any remaining sample from the column. The pH of the SP flow-through was adjusted to pH 4.5 with 10× diluted acetic acid. This flow-through was then applied to a P10-P4'staD→V-Sepharose Affinity column, as described below. […]

β-secretase 46-452 = molecular target: T2, β-secretase 46-452 (human, UniProt P56817 46-452); experiment: binding to P10-P4′staD→V affinity matrix
T2 construct: C-terminally truncated form lacking the transmembrane region
T2 sequence (P56817 46-452 limits assumed): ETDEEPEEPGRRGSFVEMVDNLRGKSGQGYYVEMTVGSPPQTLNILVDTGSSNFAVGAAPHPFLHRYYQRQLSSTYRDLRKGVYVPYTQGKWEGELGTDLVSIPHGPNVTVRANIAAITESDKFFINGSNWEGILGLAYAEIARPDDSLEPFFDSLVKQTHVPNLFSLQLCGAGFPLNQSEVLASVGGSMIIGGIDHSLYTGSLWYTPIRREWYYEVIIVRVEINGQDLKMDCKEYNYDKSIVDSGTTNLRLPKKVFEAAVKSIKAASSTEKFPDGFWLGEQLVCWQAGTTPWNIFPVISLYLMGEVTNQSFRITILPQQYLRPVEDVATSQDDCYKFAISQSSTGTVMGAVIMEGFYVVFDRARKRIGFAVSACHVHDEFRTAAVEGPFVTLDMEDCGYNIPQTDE

[2] = molecular target: T3, recombinant β-secretase from Cos A2 cells, major form resulting from Gly-58 cleavage (human, UniProt P56817 58-501); experiment: N-terminal sequencing of fractions from P10-P4′(statine)D→V Sepharose, Cos A2 cells
T3 construct: C-terminus not determined
T3 sequence (P56817 58-501): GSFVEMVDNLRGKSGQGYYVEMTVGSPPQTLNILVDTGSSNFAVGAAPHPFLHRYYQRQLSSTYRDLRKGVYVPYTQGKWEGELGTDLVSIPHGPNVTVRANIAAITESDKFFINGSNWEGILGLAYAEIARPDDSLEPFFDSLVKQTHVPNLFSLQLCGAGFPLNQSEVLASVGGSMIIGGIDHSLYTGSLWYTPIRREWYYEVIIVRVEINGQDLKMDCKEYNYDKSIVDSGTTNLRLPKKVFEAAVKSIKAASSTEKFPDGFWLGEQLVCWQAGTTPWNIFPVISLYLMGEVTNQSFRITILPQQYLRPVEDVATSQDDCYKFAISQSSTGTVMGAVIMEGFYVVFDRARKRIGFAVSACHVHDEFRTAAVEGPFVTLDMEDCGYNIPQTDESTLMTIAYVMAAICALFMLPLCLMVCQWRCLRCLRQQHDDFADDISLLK
Description: as §1

[3] = molecular target: T4, recombinant β-secretase from 293T or Cos A2 cells transfected with the full-length construct, form with … (human, UniProt P56817 46-501); experiment: affinity chromatography on P10-P4′staD→V Sepharose, extracts of transfected 293T and COS A2 cells, pH 4.5
T4 construct: also called Recombinant, 293T; Recombinant, CosA2
T4 sequence (P56817 46-501): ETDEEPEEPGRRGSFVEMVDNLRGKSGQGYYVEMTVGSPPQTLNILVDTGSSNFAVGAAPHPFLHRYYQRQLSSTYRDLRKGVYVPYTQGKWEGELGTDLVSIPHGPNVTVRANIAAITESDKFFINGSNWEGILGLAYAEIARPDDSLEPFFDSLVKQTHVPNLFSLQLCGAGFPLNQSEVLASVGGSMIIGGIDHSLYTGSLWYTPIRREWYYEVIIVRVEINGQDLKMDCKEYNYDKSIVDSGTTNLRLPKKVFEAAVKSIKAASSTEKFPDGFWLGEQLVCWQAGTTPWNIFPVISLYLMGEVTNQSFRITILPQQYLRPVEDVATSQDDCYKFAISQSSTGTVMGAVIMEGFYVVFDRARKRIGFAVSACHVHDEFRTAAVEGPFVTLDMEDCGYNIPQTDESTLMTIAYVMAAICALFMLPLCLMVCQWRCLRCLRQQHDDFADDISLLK
Description: as §1

[4] = molecular target: T5, recombinant β-secretase from 293T cells, minor form starting at Met-63 (human, UniProt P56817 63-501); experiment: N-terminal sequencing of fractions from P10-P4′(statine)D→V Sepharose, 293T cells
T5 construct: C-terminus not determined
T5 sequence (P56817 63-501): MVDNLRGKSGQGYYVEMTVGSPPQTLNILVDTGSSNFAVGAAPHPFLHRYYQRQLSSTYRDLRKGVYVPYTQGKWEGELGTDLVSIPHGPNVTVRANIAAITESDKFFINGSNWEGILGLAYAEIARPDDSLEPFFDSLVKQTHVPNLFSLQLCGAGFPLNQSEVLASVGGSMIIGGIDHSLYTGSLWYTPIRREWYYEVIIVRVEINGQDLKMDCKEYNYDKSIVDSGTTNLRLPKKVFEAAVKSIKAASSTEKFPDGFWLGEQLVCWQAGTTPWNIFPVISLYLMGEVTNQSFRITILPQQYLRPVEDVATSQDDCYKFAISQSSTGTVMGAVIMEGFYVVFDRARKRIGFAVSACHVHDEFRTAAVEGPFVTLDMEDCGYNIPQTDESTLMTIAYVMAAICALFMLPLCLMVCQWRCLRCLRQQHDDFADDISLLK
Description: as §1

T1 sequence (P56817 22-501): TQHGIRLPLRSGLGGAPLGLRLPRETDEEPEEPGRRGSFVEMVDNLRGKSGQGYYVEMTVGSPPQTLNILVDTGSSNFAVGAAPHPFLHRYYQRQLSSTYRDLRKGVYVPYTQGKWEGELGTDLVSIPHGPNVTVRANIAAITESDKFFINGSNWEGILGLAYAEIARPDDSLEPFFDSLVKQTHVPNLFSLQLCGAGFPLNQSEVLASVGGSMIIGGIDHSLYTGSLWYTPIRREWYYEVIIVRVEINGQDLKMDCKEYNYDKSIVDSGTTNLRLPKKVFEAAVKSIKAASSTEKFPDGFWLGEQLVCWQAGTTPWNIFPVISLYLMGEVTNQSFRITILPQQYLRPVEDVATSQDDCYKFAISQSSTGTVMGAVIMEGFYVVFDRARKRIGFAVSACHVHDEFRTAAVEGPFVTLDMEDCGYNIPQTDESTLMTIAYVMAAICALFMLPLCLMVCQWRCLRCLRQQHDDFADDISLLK

- binding result [1]: binds
- binding result (β-secretase 46-452): binds
- binding result [2]: binds
- binding result [3]: binds
- binding result [4]: binds
B1: P10-P4′staD→V (NH2-KTEEISEVN[sta]VAEF-COOH) (peptide)
peptide: H-KTEEISEVN[Sta]VAEF-OH
notes: Synthetic statine peptide derived from the APPsw cleavage site with D→V at P1′; also called P10-P4′(statine)D→V
